According to patent US20220340657A1 (L AND L BIO CO LTD NINGBO CHINA, published 2022):
Read-outs that look alike come from different tables or passages of the source.

T1: hLAG-3-D12-his (human, UniProt P18627 23-239)
T1 construct: range 23-239
T1 sequence: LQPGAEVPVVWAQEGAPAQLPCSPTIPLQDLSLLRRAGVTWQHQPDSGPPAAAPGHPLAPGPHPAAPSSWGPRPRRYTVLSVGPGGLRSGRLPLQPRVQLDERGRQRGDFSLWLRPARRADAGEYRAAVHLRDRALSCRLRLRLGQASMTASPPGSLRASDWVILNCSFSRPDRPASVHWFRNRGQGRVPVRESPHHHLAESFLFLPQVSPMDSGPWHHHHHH

T2: human LAG-3-hFc (human, UniProt P18627 23-422)
T2 construct: range 23-422; also called hLAG-3-hFc
T2 sequence (looked up): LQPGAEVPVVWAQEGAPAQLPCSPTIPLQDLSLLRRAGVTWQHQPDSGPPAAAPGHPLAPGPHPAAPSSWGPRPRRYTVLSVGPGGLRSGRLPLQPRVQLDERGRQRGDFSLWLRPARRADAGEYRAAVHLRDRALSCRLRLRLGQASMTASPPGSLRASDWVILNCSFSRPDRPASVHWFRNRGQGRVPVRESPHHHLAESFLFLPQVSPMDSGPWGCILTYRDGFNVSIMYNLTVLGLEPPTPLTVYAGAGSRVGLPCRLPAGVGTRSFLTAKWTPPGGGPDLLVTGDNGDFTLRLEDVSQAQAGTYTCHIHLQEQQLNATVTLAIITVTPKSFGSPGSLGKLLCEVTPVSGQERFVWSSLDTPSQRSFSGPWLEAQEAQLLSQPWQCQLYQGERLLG

T3: human LAG-3 on CHO-K1 cells (hLAG-3+ cells) (human, UniProt P18627 23-525)
T3 construct: whole, on cells; Cells fixed in the cell ELISA; also called CHO-K1hLAG-3+ cell strain
T3 sequence (looked up): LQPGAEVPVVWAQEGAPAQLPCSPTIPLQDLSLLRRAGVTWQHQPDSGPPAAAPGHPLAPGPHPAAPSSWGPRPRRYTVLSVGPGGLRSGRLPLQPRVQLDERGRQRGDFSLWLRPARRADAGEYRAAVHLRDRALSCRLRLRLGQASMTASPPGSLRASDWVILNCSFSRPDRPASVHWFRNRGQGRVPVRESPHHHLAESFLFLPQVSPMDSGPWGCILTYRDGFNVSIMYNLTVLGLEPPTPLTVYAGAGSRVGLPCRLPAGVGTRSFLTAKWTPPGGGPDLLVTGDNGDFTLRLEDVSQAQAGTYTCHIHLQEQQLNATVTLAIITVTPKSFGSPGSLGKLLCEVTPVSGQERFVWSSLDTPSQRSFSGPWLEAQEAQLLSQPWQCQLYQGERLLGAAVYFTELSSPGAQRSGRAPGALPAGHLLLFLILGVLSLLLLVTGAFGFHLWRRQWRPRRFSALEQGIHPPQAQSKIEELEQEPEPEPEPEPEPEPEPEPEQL

T4: bio-LAG3-mFc (human, UniProt P18627 23-450, biotin-labelled)
T4 construct: also called hLAG-3
T4 sequence (looked up): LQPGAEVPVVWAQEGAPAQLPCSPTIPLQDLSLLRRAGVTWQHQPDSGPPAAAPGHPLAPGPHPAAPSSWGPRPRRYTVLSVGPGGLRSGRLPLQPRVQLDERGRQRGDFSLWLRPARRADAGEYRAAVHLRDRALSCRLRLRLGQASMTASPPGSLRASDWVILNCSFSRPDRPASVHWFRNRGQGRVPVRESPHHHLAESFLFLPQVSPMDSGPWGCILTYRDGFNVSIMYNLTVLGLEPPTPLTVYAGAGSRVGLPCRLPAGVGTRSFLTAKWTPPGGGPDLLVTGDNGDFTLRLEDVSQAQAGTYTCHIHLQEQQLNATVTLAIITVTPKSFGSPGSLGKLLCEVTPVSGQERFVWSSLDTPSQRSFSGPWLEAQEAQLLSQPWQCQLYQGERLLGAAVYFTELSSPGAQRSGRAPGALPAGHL


Legend:
cyno-LAG3-hFc [1] = target: T5, cyno-LAG3-hFc (cynomolgus monkey); experiment: ELISA
T5 construct: Bought product; also called cynomolgus monkey LAG-3
Method: (§1) After discarding the liquid, a blocking solution of 5% skimmed milk (Bright skimmed milk powder) diluted with PBS was added at 230 μl per well, followed by incubating at 37° C. for 3 hours or 4° C. overnight (16-18 hours) for blocking. Subsequently, the blocking solution was discarded, and the micropiate was washed 5 times with PBST buffer (pH 7.4 PBS containing 0.05% tweeen-20). Then 50 μl/well of the supernatant (containing the antibody to be tested) or a starting concentration of 10 μg/ml of the antibody to be tested, which was diluted 5 times in gradient, was added, followed by incubating the mixture for 1 hour at 37° C. […] After washing the microplate 5 times with PBST, 50 μl/well TIMB chromogenic substrate (KPL, Cat. No.: 52-00-03) was added, and then incubated for […] at room temperature. Finally, 50 μl/well of 1 M H₂SO₄ was added to stop the reaction. The absorbance value at 450 nm was read by […] GO microplate reader (ThermoFisher, Cat. No.: 51119200). The clones with high affinity were selected according to the OD value or the EC₅₀ value was calculated (for antibodies with known concentrations).

hLAG-3-D12-his = target: T1, hLAG-3-D12-his; experiment: ELISA
Method: as §1

human LAG-3-hFc = target: T2, human LAG-3-hFc; experiment: ELISA
Method: as §1

[2] = target: T3, human LAG-3 on CHO-K1 cells (hLAG-3+ …); experiment: cell ELISA on fixed CHO-K1 hLAG-3+ cells
Method: After washing with PBS (BasalMedia Biology, Cat. No.: B320) once, 5% milk was added with 230 μl per well, and the microplate was incubated for 2 hours at 37° C. for blocking, and then was washed three times with PBST. After washing, each well was added with 50 μl sample (the samples were 5-fold serially diluted with an initial concentration of 10 μg/ml). The microplate was then incubated for 1 hour at 37° C. and washed 5 times with PBST. […] After washing the microplate 5 times with PBST, 50 μl/well TMB (Sunnodic, Cat. No.: TTMB-1000-01) was added to the microplate for color development. Finally, 50 μl/well of 1M H₂SO₄ was added to stop the reaction. The microplate was then read by a microplate reader (MultiskanGO Thermo, model 511919200), and the data were analyzed using Graphpad prism 5.

cyno-LAG3-hFc [3] = target: T5, cyno-LAG3-hFc; experiment: ELISA; remark: listed apart in the source
bio-LAG3-mFc [4] = target: T4, bio-LAG3-mFc; experiment: blocking ELISA, LAG-3 on Daudi cells
bio-LAG3-mFc [5] = target: T4, bio-LAG3-mFc; experiment: blocking ELISA, LAG-3 on Daudi cells; remark: listed apart in the source

EC50 (cyno-LAG3-hFc [1]) [nM]	EC50 (hLAG-3-D12-his) [nM]	EC50 (human LAG-3-hFc) [nM]	EC50 [2] [nM]	fold weaker than binding to human LAG-3 (cyno-LAG3-hFc [3]) [times]	IC50 (bio-LAG3-mFc [4]) [nM]	IC50 (bio-LAG3-mFc [5]) [nM]	Binder
40.2	1.71	0.25	0.2	> 200	1.64	2.7	humanized anti-human LAG-3 antibody Ab2317 (antibody, human IgG4 S228P, kappa, V domains shown, LG2317 / LG2343, human kappa / hIgG4) VH: QVQLVQSGAEVKKPGASVKVSCKASGYTFTDYEMHWVKQAPGQGLEWIGGIDPETEGIAYNQKFRGRATLTADKSTSTAYMELRSLRSDDTAVYYCTNSNYYGGREAWFAYWGQGTLVTVSS VL: DIQMTQSPSSLSASVGDRVTITCRASQDIGSSLNWYQQKPGKAPKRLIYATSSLDSGVPSRFSGSRSGSDFTLTISSLQPEDFATYYCLQYVTSPLTFGGGTKVEIKR
44.5	1.51	0.4	0.19	> 200	1.76	3.6	humanized antibody Ab2325 (antibody, human IgG4 S228P, kappa, V domains shown, LG2317 / LG2348, human kappa / hIgG4) VH: QVQLVQSGAEVKKPGASVKVSCKASGYTFTDYEMHWVKQAPGQGLEWMGGIDPETEGIAYNQKFRGRATMTTDTSTSTAYMELRSLRSDDTAVYYCANSNYYGGREAWFAYWGQGTLVTVSS VL: DIQMTQSPSSLSASVGDRVTITCRASQDIGSSLNWYQQKPGKAPKRLIYATSSLDSGVPSRFSGSRSGSDFTLTISSLQPEDFATYYCLQYVTSPLTFGGGTKVEIKR
